Source: PMC5053661, “Human papillomavirus oncogenic E6 protein regulates human β-defensin 3 (hBD3) expression via the tumor suppressor protein p53”

Target: p53 (UniProt P04637 1-393)
Test: EMSA; 100 ng p53, 100 nM probe; EMSA: 100 ng recombinant p53, 100 nM annealed biotin probe; binding buffer, salt, pH and temperature not given (ref 63)
Settings: protein: commercial, chain copies: 4, label: 3'-biotin

Chain of p53 (P04637 whole entry): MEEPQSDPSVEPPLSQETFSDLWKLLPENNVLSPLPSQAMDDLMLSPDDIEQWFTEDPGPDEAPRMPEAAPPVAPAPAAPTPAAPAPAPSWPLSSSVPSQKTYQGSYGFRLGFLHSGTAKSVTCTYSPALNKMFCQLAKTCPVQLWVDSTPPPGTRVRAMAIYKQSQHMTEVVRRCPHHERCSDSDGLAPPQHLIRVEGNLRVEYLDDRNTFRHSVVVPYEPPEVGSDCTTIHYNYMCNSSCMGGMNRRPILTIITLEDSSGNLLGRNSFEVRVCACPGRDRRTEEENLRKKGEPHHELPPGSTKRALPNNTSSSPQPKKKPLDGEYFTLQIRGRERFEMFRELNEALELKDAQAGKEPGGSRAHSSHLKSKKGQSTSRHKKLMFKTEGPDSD

Binder	binding result
hBD3 -1339 mutant probe (dsDNA) DNA 1: TGACTGTCGACCCATCTACCTGGCCCTAAATTG DNA 2: CAATTTAGGGCCAGGTAGATGGGTCGACAGTCA	no binding
hBD3 promoter -1339 p53 probe (dsDNA) DNA 1: TGACTGTCTGCCCATCTACCTGGCCCTACAT DNA 2: ATGTAGGGCCAGGTAGATGGGCAGACAGTCA	binds
